{
  "source": "paper PMC11420955",
  "key": {"McjB M108T": {"biological_target": "McjB M108T (UniProt Q9X2V8)"}, "McjB": {"biological_target": "T1, McjB (UniProt Q9X2V8)", "T1 sequence": "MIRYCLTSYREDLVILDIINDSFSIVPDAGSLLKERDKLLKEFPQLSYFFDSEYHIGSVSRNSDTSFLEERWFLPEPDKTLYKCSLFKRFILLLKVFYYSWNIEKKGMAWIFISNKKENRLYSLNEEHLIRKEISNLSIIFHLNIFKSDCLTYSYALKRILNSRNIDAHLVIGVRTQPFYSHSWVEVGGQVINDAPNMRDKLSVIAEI"}, "McjC": {"biological_target": "T2, McjC (UniProt Q9X2V9)", "T2 sequence": "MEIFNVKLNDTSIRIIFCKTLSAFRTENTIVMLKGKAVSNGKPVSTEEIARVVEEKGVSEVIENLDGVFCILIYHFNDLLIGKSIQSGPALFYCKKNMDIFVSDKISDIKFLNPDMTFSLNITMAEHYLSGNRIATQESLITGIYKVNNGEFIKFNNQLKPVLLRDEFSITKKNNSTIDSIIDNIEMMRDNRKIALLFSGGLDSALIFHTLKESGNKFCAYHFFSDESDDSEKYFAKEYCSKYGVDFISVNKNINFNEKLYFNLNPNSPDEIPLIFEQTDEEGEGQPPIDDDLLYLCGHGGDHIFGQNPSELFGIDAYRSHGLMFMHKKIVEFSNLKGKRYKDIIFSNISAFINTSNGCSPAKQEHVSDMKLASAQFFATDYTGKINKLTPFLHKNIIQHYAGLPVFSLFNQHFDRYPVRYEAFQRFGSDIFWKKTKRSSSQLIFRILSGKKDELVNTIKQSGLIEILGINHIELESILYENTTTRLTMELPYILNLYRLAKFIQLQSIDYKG"}, "McjC K337E": {"biological_target": "McjC K337E (UniProt Q9X2V9)"}, "McjC S440Y": {"biological_target": "McjC S440Y (UniProt Q9X2V9)"}},
  "data": [
    {"molecule": "McjA T-2M (peptide)", "values": [
      {"measurement": "MccJ25 production yield relative to WT (HPLC peak area of E. coli culture extract; synthetic rescue pair TM)", "setting": "McjB M108T", "result": 5.4, "unit": "%"},
      {"measurement": "MccJ25 production yield relative to WT (HPLC peak area of E. coli culture extract)", "setting": "McjB", "result": 1, "unit": "%"}
    ]},
    {"molecule": "Split McjB S80/81 (B1 1-80 and B2 81-208 as separate proteins) (from UniProt Q9X2V8 1-80; Q9X2V8 81-208) (complex)", "values": [
      {"measurement": "MccJ25 production yield relative to WT (HPLC peak area of E. coli culture extract)", "setting": "McjC", "result": 41, "unit": "%"}
    ]},
    {"molecule": "Microcin J25 precursor peptide McjA", "values": [
      {"measurement": "MccJ25 production yield relative to WT (HPLC peak area of E. coli culture extract)", "setting": "McjC K337E", "result": 8.1, "unit": "%"},
      {"measurement": "MccJ25 production yield relative to WT (HPLC peak area of E. coli culture extract)", "setting": "McjC S440Y", "result": 2.4, "unit": "%"}
    ]},
    {"molecule": "McjB with a C-terminal MBP fusion (enzyme) MIRYCLTSYREDLVILDIINDSFSIVPDAGSLLKERDKLLKEFPQLSYFFDSEYHIGSVSRNSDTSFLEERWFLPEPDKTLYKCSLFKRFILLLKVFYYSWNIEKKGMAWIFISNKKENRLYSLNEEHLIRKEISNLSIIFHLNIFKSDCLTYSYALKRILNSRNIDAHLVIGVRTQPFYSHSWVEVGGQVINDAPNMRDKLSVIAEI", "values": [
      {"measurement": "MccJ25 production yield relative to WT (HPLC peak area of E. coli culture extract; McjB-MBP in an otherwise native gene cluster)", "setting": "McjC", "result": 61, "unit": "%"}
    ]},
    {"molecule": "McjB F67R (enzyme) MIRYCLTSYREDLVILDIINDSFSIVPDAGSLLKERDKLLKEFPQLSYFFDSEYHIGSVSRNSDTSRLEERWFLPEPDKTLYKCSLFKRFILLLKVFYYSWNIEKKGMAWIFISNKKENRLYSLNEEHLIRKEISNLSIIFHLNIFKSDCLTYSYALKRILNSRNIDAHLVIGVRTQPFYSHSWVEVGGQVINDAPNMRDKLSVIAEI", "values": [
      {"measurement": "MccJ25 production yield relative to WT (HPLC peak area of E. coli culture extract)", "setting": "McjC", "result": 0.6, "unit": "%"}
    ]},
    {"molecule": "McjC with a C-terminal MBP fusion (enzyme) MEIFNVKLNDTSIRIIFCKTLSAFRTENTIVMLKGKAVSNGKPVSTEEIARVVEEKGVSEVIENLDGVFCILIYHFNDLLIGKSIQSGPALFYCKKNMDIFVSDKISDIKFLNPDMTFSLNITMAEHYLSGNRIATQESLITGIYKVNNGEFIKFNNQLKPVLLRDEFSITKKNNSTIDSIIDNIEMMRDNRKIALLFSGGLDSALIFHTLKESGNKFCAYHFFSDESDDSEKYFAKEYCSKYGVDFISVNKNINFNEKLYFNLNPNSPDEIPLIFEQTDEEGEGQPPIDDDLLYLCGHGGDHIFGQNPSELFGIDAYRSHGLMFMHKKIVEFSNLKGKRYKDIIFSNISAFINTSNGCSPAKQEHVSDMKLASAQFFATDYTGKINKLTPFLHKNIIQHYAGLPVFSLFNQHFDRYPVRYEAFQRFGSDIFWKKTKRSSSQLIFRILSGKKDELVNTIKQSGLIEILGINHIELESILYENTTTRLTMELPYILNLYRLAKFIQLQSIDYKG", "values": [
      {"measurement": "MccJ25 production yield relative to WT (HPLC peak area of E. coli culture extract; McjC-MBP in an otherwise native gene cluster)", "setting": "McjB", "result": 86, "unit": "%"}
    ]},
    {"molecule": "McjB circular permutant CP60/61 (enzyme) RNSDTSFLEERWFLPEPDKTLYKCSLFKRFILLLKVFYYSWNIEKKGMAWIFISNKKENRLYSLNEEHLIRKEISNLSIIFHLNIFKSDCLTYSYALKRILNSRNIDAHLVIGVRTQPFYSHSWVEVGGQVINDAPNMRDKLSVIAEIGGSSGGMIRYCLTSYREDLVILDIINDSFSIVPDAGSLLKERDKLLKEFPQLSYFFDSEYHIGSVS", "values": [
      {"measurement": "MccJ25 production yield relative to WT (HPLC peak area of E. coli culture extract)", "setting": "McjC", "result": 0.4, "unit": "%"}
    ]},
    {"molecule": "McjB circular permutant CP80/81 (enzyme) LYKCSLFKRFILLLKVFYYSWNIEKKGMAWIFISNKKENRLYSLNEEHLIRKEISNLSIIFHLNIFKSDCLTYSYALKRILNSRNIDAHLVIGVRTQPFYSHSWVEVGGQVINDAPNMRDKLSVIAEIGGSSGGMIRYCLTSYREDLVILDIINDSFSIVPDAGSLLKERDKLLKEFPQLSYFFDSEYHIGSVSRNSDTSFLEERWFLPEPDKT", "values": [
      {"measurement": "MccJ25 production yield relative to WT (HPLC peak area of E. coli culture extract)", "setting": "McjC", "result": 4.4, "unit": "%"}
    ]}
  ]
}
